Source: patent US20260152571A1

B1: 1G7-IgG1-SI (antibody, V domains shown)
VH: QVQLVESGGGVVRPGGSLRLSCTASGFTFDDYGMTWVRQAPGKGLEWVSGINWNGGSTGYADSVKGRFTISRDNAKNSLFLQMNSLRAEDTALYYCARDQGIAVVGTHYYYYYGMDVWGQGTAVTVSS
VL: EIVLTQSPATLSLSPGERATLSCRASQSFSSYLAWYQQKPGQAPRLLIFDTSNRATGIPARFSGSGSGTDFTLTISSLEPEDFAVYYCQQRSNWPLTFGGGTKVEIK
B2: 4F10-IgG1-SI (antibody, V domains shown)
VH: QVQLQESGPGLVKPSETLSLTCTVSGGSISNYYWSWIRQPPGKGLEWIGYIYYSGSTNYNPSLKSRVNISVDTSKSQVSLKLNSVIAADTAVYYCARHEDYWYFDLWGRGTLVTVSS
VL: DIQLTQSPSSLSASIRDRVTITCRASQDINNYLAWFQQKPGKAPKSLIYAVSSLESGVPSKFSGSGSGTDFTLTISSLQPEDFATYFCQQYNSYPFTFGPGTKVEIK
B3: 3A6-IgG1-SI (antibody, V domains shown)
VH: QVQLQESGPGMVKPSETLSLTCTVSGGSISYNYWSWIRQPPGKGLEWIGYIYHSGTTKYNPSLKSRVTMSVDTSKNHFSLKLNSVTAADTAVYYCARHEDYWFFDLWGRGTLVTVSS
VL: DIQMTQSPSSLSASVGDRVTITCRASQGISNYLVWFQQKPGKAPKSLIYAASILQSGVPSKFSGSGSGTDFTLTINSLQPEDFATYYCQQYNTYPFTFGPGTKVDIK
B4: 7B9-IgG1-SI (antibody, V domains shown)
VH: EVQLVESGGGVVQPGGSLRLSCAASGFTFDDYAMHWVRQAPGKGLEWVSLISGDDGSTYYADSMKGRITISRDNSKNSLYLQMNSLRTEDTAMYYCAKASYGSGSYLYNYGMDVWGQGTTVTVFS
VL: DIQLTQSPSSLSASVGDRVTITCQASQDIINYLNWYQQKPGKAPKLLIYDTSNLETGVPSRFSGSGSGTDFAFTINSLQPEDIATYYCQQFVNLPLTFGGGTKVEIK
B5: P01264-IgG1-SI (antibody, V domains shown)
VH: EVQLVESGGGLVKPGGSLRLSCAASGFTFSNAWMNWVRQAPGKGLEWVGRIKSKTDGGTTDYAAPVKGRFTISRHDSKNTLYLQMNSLKTEDTAVYYCATDPRIAVTGTDYYYGMDVWGQGTTVTVSS
VL: DIVMTQTPSFLSASVGDRVTITCRASQDISNYLNWYQQKPGKAPKLLIYDASNLETGVPSRFSGSGSGTDFTFTISSLQPEDIATYYCQQYDNLPITFGQGTRLEIK

target: HLA-A2 on T2 cells without added peptide (human); assay: flow cytometry, T2 cells without peptide, antibody 10 µg/mL

Row | Binder | Percentage of Positive Cells (%)
1 | B1 | 5.32
2 | B2 | 7.67
3 | B3 | 5.77
4 | B4 | 4.66
5 | B5 | 4.65

target: PIGQ/HLA complex on PIGQ-pulsed T2 cells (human); assay: flow cytometry, T2 cells pulsed with 25 µM PIGQ peptide, antibody 10 µg/mL

Row | Binder | Percentage of Positive Cells (%)
6 | B1 | 5.12
7 | B2 | 7.37
8 | B3 | 5.2
9 | B4 | 5.13
10 | B5 | 4.93

target: MED13L/HLA complex on MED13L-pulsed T2 cells (human); assay: flow cytometry, T2 cells pulsed with 25 µM MED13L peptide, antibody 10 µg/mL

Row | Binder | Percentage of Positive Cells (%)
11 | B1 | 5.12
12 | B2 | 13.1
13 | B3 | 5.72
14 | B4 | 7.68
15 | B5 | 5.87
